The target of assay [1] is N-terminal cupredoxin-tethered three-domain copper-containing nitrite reductase from Hyphomicrobium denitrificans strain 1NES1 (Hyphomicrobium denitrificans strain 1NES1). The assay is described as follows: SEC; HiLoad 16/600 Superdex 200 pg, 100 mM Tris-HCl pH 8.0, 500 mM NaCl, 10% (v/v) glycerol, 1.0 ml/min; mass estimated from a calibration curve of marker proteins.
The next assay concerns the target T1, Hd 1NES1NiR (Hyphomicrobium denitrificans, UniProt N0B9M5).
T1 construct: gene HYPDE_25578; N-terminal cupredoxin-tethered three-domain CuNiR; predicted signal peptide removed; 6xHis-tag cut with TEV; E. coli BL21(DE3), pET-26b(+); Cu-loaded; hexamer (dimer of trimers)
T1 sequence (N0B9M5 38-486): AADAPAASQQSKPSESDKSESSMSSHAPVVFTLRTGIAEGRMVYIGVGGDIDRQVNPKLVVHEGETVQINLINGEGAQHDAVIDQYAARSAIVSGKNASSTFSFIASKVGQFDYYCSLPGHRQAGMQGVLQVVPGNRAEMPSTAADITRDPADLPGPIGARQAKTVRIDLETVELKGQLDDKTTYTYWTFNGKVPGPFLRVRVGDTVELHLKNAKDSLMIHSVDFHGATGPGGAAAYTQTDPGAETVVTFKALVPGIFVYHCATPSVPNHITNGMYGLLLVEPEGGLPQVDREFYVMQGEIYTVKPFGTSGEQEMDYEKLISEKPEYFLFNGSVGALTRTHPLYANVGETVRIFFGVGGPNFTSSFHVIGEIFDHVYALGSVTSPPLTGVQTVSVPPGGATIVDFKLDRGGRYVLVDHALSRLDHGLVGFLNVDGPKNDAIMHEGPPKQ
The assay is described as follows: X-ray crystal structure (nitrite-soaked crystal). The format is binding. Conditions: 100 mM NaNO2 soak, pH 5.3; catalytic T2Cu site, side-on, two of three monomers; third monomer holds NO.

The text below walks through data of article PMC7201279, “Structures of substrate- and product-bound forms of a multi-domain copper nitrite reductase shed light on the role of domain tethering in protein complexes” (IUCrJ, 2020).

One may read the stoichiometry N as the number of molecules, sites or subunits per partner or assembly. Consider “N-terminal cupredoxin-tethered three-domain copper-containing nitrite reductase from Hyphomicrobium denitrificans strain 1NES1 (enzyme)”, for which the stoichiometry N in assay [1] was 6.

Consider `O=NO` [NO2, nitrite], for which the “X-ray crystal structure (nitrite-soaked crystal)” value at Hd 1NES1NiR is reported as “The NO2 ^− is bound to the T2Cu in a side-on conformation”.
